Assay results reported in the supplement of paper PMC12764529.
± gives the half width of the 95% confidence interval.

Experiment: folding stability dG unfold (combined trypsin and chymotrypsin); higher = more stable
How it was run: (§1)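 Unfolding free energy was derived, per protease or combined, by relating Bayesian-fitted K50 values from sequencing counts to a sequence-predicted unfolded-state K50 and a shared folded-state K50. The underlying digests exposed cysteine-free mini-proteins under 80 residues, in a PA-tagged cDNA display construct, to trypsin and chymotrypsin at 11 threefold-diluted concentrations and to a no-protease condition. A filter kept only designs with AlphaFold2 dimer inter-PAE above 15.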

Row | Sequence | folding stability dG unfold
1 | SAGGRIEVRPLEGSGAVLVRILDPELRKKLEEKFPDVTEILFPVEGAEDIPLEELRDRAIKEIEELIDSAGG [r19_298_TrMRF] | 0.956 ± 0.059 kcal/mol
2 | SAGGSAGGSAGSPKGKPPKPTIEYEPITFEIPNPDGQGFELEISIIRMPGNGQEFIGISFSAGGSAGGSAGG [r11_1024_TrROS] | 1.58 ± 0.17 kcal/mol
3 | SAGGSAGGSAGGSSDIVVTSETLPGPTRLVRITIPEKGETIELTLPASESIEQAVALLLSAGGSAGGSAGGS [r4_393_JUSTAS] | 0.381 ± 0.16 kcal/mol
4 | SAGGSAKKKKVTITIEVVKNKETGEYLVRIKIKVDGKEYEIVMSEDELKALIDAGVKIEKIEVYPRSAGGSA [r15_783_TrROS_Hall] | 2.59 ± 0.1 kcal/mol
5 | SAGGMIKITVTLPDPARVRALFAELGLDVEVTPLPDGSVEIYLPEEYKEKVVEALPEEEVEITPVPPLSAGG [r13_261_JUSTAS] | 2.91 ± 0.14 kcal/mol
6 | SAGGMTLDQLKHALRHKKMQIHEPNPNGWYVTFQNPDGKPPTFPVKSDDELRDILRDAPGFEVEVQPVSAGG [r13_600_TrROS] | 0.608 ± 0.2 kcal/mol
7 | KTITIVIKNEDGELYVIKIKLKNGEEKEIVFKSLEELKNAIAKELGLSKEKIEIVEIKPLSPEELKELEKKS [r1_119_TrROS_Hall] | 3.33 ± 0.35 kcal/mol
8 | SAGGSAGGMKEVIEAALKDGSKEFYAPGFSPDKVYDVKITVYPGEGKVEIEVEGKRFTVSPEDLSAGGSAGG [r6_749_TrMRF] | 1.11 ± 0.23 kcal/mol
9 | SAGGSKWIPVSIWFPKGMTPEKVEEIARELVEAGYRIENIEVEREPDPNGREWYRVDITFRPPGDLSAGGSA [r2_442_TrROS] | 2.83 ± 0.18 kcal/mol
10 | SAGGSALPPHAVRVLVVTATDTDPGAAAARIAEEFRRKYPNTRVLTRPFDVPPGRPAVVAVVYVDESAGGSA [r15_916_TrMRF] | 2.08 ± 0.2 kcal/mol
11 | SMVIEIPDGTPLEEIIKKVKEAKEKGEPMEVVVTVPNDESVIQALKEAGFEVEVEKDEVKNVTLYKVKLPSA [r9_759_JUSTAS] | 2.59 ± 0.076 kcal/mol
12 | SAGGRKITINWNPNSGEIKVKIIWPDGEKEELPIPVPEGHDSPRQFADELKDNAQERFGEPVKIEITSAGGS [r8_166_TrROS] | -0.492 ± 0.4 kcal/mol
13 | SAGGSKKKIEKIEIEIEIKNKDGKTYKIKAEIEKVELKDGKVAKIRLEIYNENGEKIAEFEFEIKISAGGSA [r2_215_TrROS_Hall] | 3.61 ± 0.23 kcal/mol
14 | SAEKEYKVKVKVKIEIVELSEEELENLPPGALVIEVDGKLYLMRIEVEEVEVEEVPEEPEVDEETGELLSAG [r14_126_TrROS_Hall] | 3.33 ± 0.17 kcal/mol
15 | SAGGKKHYLVKVKATLTDKNGKKIAEVEFIFHFESPEELEEALKSIPSKYITEVKILSIEEIPEEEFSAGGS [r16_677_TrMRF] | 3.55 ± 0.18 kcal/mol
16 | SAGGSAGGSGSMSTPVTEEITLTLTRTTEDGTEVVITIKVKVVKDPTSDVVTVTEVLSETVEPSAGGSAGGS [r12_358_JUSTAS] | 2.37 ± 0.099 kcal/mol
17 | SAGGSAGGSAGGEPEVKVELRVELDEDGRLRVTLKVEFEDGTVERELELEAPVVFFPPEESAGGSAGGSAGG [r7_992_TrROS_Hall] | 2.49 ± 0.16 kcal/mol
18 | SAGGSAVEFTEPGAELLSEEKLPDGTVVKRVLLPDGSVLLLLPDNSIKTRSLSNPNTSLSEWDPELSAGGSA [r15_692_JUSTAS] | 0.491 ± 0.26 kcal/mol
19 | SAGGSAGGETITVKVKIKNEDGEEIEVEAEVTKNKDGSYTITIKNKETGETKVVPNATIEEVEPSAGGSAGG [r6_254_TrROS_Hall] | 1.93 ± 0.18 kcal/mol
20 | SAGGSASVLEEAIEEAKKLPPGSVVPLTVTVPTDGEPVVYEILITVHPGENTIEVEKKRKFSPERLSAGGSA [r15_724_JUSTAS] | 0.439 ± 0.095 kcal/mol
21 | SAGGSAIEIEPAPDNVLVVTADLPPNVPAEKLVEALKDLIPDVEFETSSSADGRHVIVLRLPPDVFSAGGSA [r15_1047_TrMRF] | 1.05 ± 0.07 kcal/mol

Row | Sequence | folding stability dG unfold
22 | SAGGSAGGSPPPDIKVEVESYENPDGQRYYRVTITIDDGRPFDIWMPPGMSPSEAKNWLKDLLSAGGSAGGS [r12_1019_TrROS] | 3.78 ± 0.094 kcal/mol
23 | SAGGSKKKKPEKPPVVLIKITVEETGKEITIPLEELRNMSAEELAKRIAEELRERYPGLKVRVEIVSAGGSA [r2_392_TrROS_Hall] | 2.07 ± 0.17 kcal/mol
24 | SAGGSAGGSAGGGSSMITLERESEPGETFEFNFPGVSEVTVTEVIPGDGKVTVKVEVTSPSAGGSAGGSAGG [r7_292_JUSTAS] | 0.537 ± 0.11 kcal/mol
25 | SAGGSAGGSADYFMVVIKYYPPNGEKQEHPFSVPFKDEEDLKDEIKEQAPPGREVEIEIFPMSAGGSAGGSA [r18_60_TrROS] | 0.647 ± 0.12 kcal/mol
26 | STLEQILDAIESMPPGWVFRIKIHHPNGEPHEHRFNMTYDDIKAQLENMIDHHPGQPIKIKIEFMPPEDFSA [r9_37_TrROS] | 3.38 ± 0.064 kcal/mol
27 | SAGGSAGGPEIDLKEVRVFYPPGGERLVLVEVRDDVPLEQVRDWVLERGGEFYRELPNQILVRGSAGGSAGG [r6_543_TrMRF] | -0.00273 ± 0.18 kcal/mol
28 | SAGGSAGGSAGVVDEVKAALEPQGLKVLSVTPGSSSVTVTVLDPKKGETTTFTIPLDDPLSAGGSAGGSAGG [r11_428_JUSTAS] | 1.22 ± 0.057 kcal/mol
29 | SAGGSAGGSEWYEIRIPGIKGSADDLVEDIQDWFPAPNMKISIEEVEPMGDGLPGMTIKLRVNSAGGSAGGS [r12_348_TrROS] | 0.381 ± 0.054 kcal/mol
30 | SALPLPSSAKVELEWELVGVDPGSKGAKVYYRRTLKVTFPTGSLTVTYLVEYDPETGTFSWSITSVSPESAG [r14_293_TrMRF] | 5.38 ± 0.21 kcal/mol
31 | SAGGSAGGSAKPKVKIEVEERRVLTLDPETGELKEERVLVVRIEVEPGMSEEEAKKLLEELASAGGSAGGSA [r18_438_TrROS_Hall] | 2.27 ± 0.16 kcal/mol
32 | SAGGSAGGSAGGKPKVIVIEGMSLEEIKALLAELPEDVTIVVRLPDGSTRTLTVRLPEPSAGGSAGGSAGGS [r10_514_TrROS_Hall] | 1.48 ± 0.095 kcal/mol
33 | SAGGSAGGSAGGGLRKITFETPLSDFEELVKALGLNVVSAEVEPGAGGLAKVTLLVEEGSAGGSAGGSAGGS [r10_999_TrMRF] | 1.55 ± 0.041 kcal/mol
34 | SGATVTVSKDGRTYTVTVSPNATVTVEVRDPTSTSTYTQTVPPGQPTTVSLPLPSDVSSSVTIASIDVGASA [r9_1152_JUSTAS] | 0.592 ± 0.072 kcal/mol
35 | SAGGGKKYRVTLELTLPDGTKLTLEFEFEVVPPAVPKPVVTTSLDDIAEFDPETGTAIDKKNKKPIPLPSAG [r5_807_TrMRF] | 2.66 ± 0.19 kcal/mol
36 | SAGGSAGSGFEEEAAAAFAASAGAMTLTVVEREPDSYTVATVTRTPGTGAPTVTVTTLSPETLAAASAGGSA [r15_156_JUSTAS] | 0.701 ± 0.12 kcal/mol
37 | SAGGSAGGSNELLKKLGLKPDQTILVLARPGEIEKLRKEKPIKRIEVTPLPDDLYLYRIEVEGSAGGSAGGS [r12_750_TrMRF] | 0.192 ± 0.19 kcal/mol
38 | SAGMDPSDPNSITTLTTEVEPLPDGSTRVTTYTKLPDGTIVKNVTTLDPAGNVLTTTTTPIPPEALNASAGG [r19_285_JUSTAS] | 3.75 ± 0.096 kcal/mol
39 | SAGGSAGGSKIPPGEPVTLPIFFIIWDPENGRPYAMRMEITFDAPDGNITKMNEEVIPPGQPFSAGGSAGGS [r12_868_TrROS] | 1.54 ± 0.14 kcal/mol
40 | SAGGSAGGSMITLTLPDEEALRAYVEQLVADAGTEITEVTVTPLAPDTVEAEVSIDPTDPVGLSAGGSAGGS [r12_647_JUSTAS] | 0.858 ± 0.098 kcal/mol
41 | SAGGSAGGSAGGSSVKLTLPDGSQVTVDIHPDGTATVTTFPGDTPSVTNMPVSAFQAALPSAGGSAGGSAGG [r7_178_JUSTAS] | 2.08 ± 0.53 kcal/mol
42 | SAGGSAGGSAGGDEEAIKEAAAAAPKDTTTVPVLLPDGKEVTLEVTWHPDGSRTITVRQSAGGSAGGSAGGS [r10_1017_JUSTAS] | 1.15 ± 0.072 kcal/mol

Experiment: folding stability dG unfold from trypsin proteolysis; higher = more stable
How it was run: as §1

Row | Sequence | folding stability dG unfold
43 | SAGGRIEVRPLEGSGAVLVRILDPELRKKLEEKFPDVTEILFPVEGAEDIPLEELRDRAIKEIEELIDSAGG [r19_298_TrMRF] | 1.4 ± 0.051 kcal/mol
44 | SAGGSAGGSAGSPKGKPPKPTIEYEPITFEIPNPDGQGFELEISIIRMPGNGQEFIGISFSAGGSAGGSAGG [r11_1024_TrROS] | 0.611 ± 0.086 kcal/mol
45 | SAGGSAGGSAGGSSDIVVTSETLPGPTRLVRITIPEKGETIELTLPASESIEQAVALLLSAGGSAGGSAGGS [r4_393_JUSTAS] | 0.253 ± 0.1 kcal/mol
46 | SAGGSAKKKKVTITIEVVKNKETGEYLVRIKIKVDGKEYEIVMSEDELKALIDAGVKIEKIEVYPRSAGGSA [r15_783_TrROS_Hall] | 1.6 ± 0.017 kcal/mol
47 | SAGGMIKITVTLPDPARVRALFAELGLDVEVTPLPDGSVEIYLPEEYKEKVVEALPEEEVEITPVPPLSAGG [r13_261_JUSTAS] | 2.5 ± 0.13 kcal/mol
48 | SAGGMTLDQLKHALRHKKMQIHEPNPNGWYVTFQNPDGKPPTFPVKSDDELRDILRDAPGFEVEVQPVSAGG [r13_600_TrROS] | -0.0886 ± 0.17 kcal/mol
49 | KTITIVIKNEDGELYVIKIKLKNGEEKEIVFKSLEELKNAIAKELGLSKEKIEIVEIKPLSPEELKELEKKS [r1_119_TrROS_Hall] | 1.99 ± 0.13 kcal/mol
50 | SAGGSAGGMKEVIEAALKDGSKEFYAPGFSPDKVYDVKITVYPGEGKVEIEVEGKRFTVSPEDLSAGGSAGG [r6_749_TrMRF] | 1.48 ± 0.14 kcal/mol
51 | SAGGSKWIPVSIWFPKGMTPEKVEEIARELVEAGYRIENIEVEREPDPNGREWYRVDITFRPPGDLSAGGSA [r2_442_TrROS] | 2.71 ± 0.085 kcal/mol
52 | SAGGSALPPHAVRVLVVTATDTDPGAAAARIAEEFRRKYPNTRVLTRPFDVPPGRPAVVAVVYVDESAGGSA [r15_916_TrMRF] | 1.15 ± 0.12 kcal/mol
53 | SMVIEIPDGTPLEEIIKKVKEAKEKGEPMEVVVTVPNDESVIQALKEAGFEVEVEKDEVKNVTLYKVKLPSA [r9_759_JUSTAS] | 2.7 ± 0.15 kcal/mol
54 | SAGGRKITINWNPNSGEIKVKIIWPDGEKEELPIPVPEGHDSPRQFADELKDNAQERFGEPVKIEITSAGGS [r8_166_TrROS] | -0.223 ± 0.15 kcal/mol
55 | SAGGSKKKIEKIEIEIEIKNKDGKTYKIKAEIEKVELKDGKVAKIRLEIYNENGEKIAEFEFEIKISAGGSA [r2_215_TrROS_Hall] | 2.08 ± 0.15 kcal/mol
56 | SAEKEYKVKVKVKIEIVELSEEELENLPPGALVIEVDGKLYLMRIEVEEVEVEEVPEEPEVDEETGELLSAG [r14_126_TrROS_Hall] | 2.28 ± 0.16 kcal/mol
57 | SAGGKKHYLVKVKATLTDKNGKKIAEVEFIFHFESPEELEEALKSIPSKYITEVKILSIEEIPEEEFSAGGS [r16_677_TrMRF] | 3.36 ± 0.18 kcal/mol
58 | SAGGSAGGSGSMSTPVTEEITLTLTRTTEDGTEVVITIKVKVVKDPTSDVVTVTEVLSETVEPSAGGSAGGS [r12_358_JUSTAS] | 2.18 ± 0.051 kcal/mol
59 | SAGGSAGGSAGGEPEVKVELRVELDEDGRLRVTLKVEFEDGTVERELELEAPVVFFPPEESAGGSAGGSAGG [r7_992_TrROS_Hall] | 2.73 ± 0.18 kcal/mol
60 | SAGGSAVEFTEPGAELLSEEKLPDGTVVKRVLLPDGSVLLLLPDNSIKTRSLSNPNTSLSEWDPELSAGGSA [r15_692_JUSTAS] | 0.613 ± 0.17 kcal/mol
61 | SAGGSAGGETITVKVKIKNEDGEEIEVEAEVTKNKDGSYTITIKNKETGETKVVPNATIEEVEPSAGGSAGG [r6_254_TrROS_Hall] | 1.59 ± 0.12 kcal/mol
62 | SAGGSASVLEEAIEEAKKLPPGSVVPLTVTVPTDGEPVVYEILITVHPGENTIEVEKKRKFSPERLSAGGSA [r15_724_JUSTAS] | -0.411 ± 0.14 kcal/mol
63 | SAGGSAIEIEPAPDNVLVVTADLPPNVPAEKLVEALKDLIPDVEFETSSSADGRHVIVLRLPPDVFSAGGSA [r15_1047_TrMRF] | 1.05 ± 0.044 kcal/mol
